The values that follow are results of earlier work, collected in paper PMC3479961.

What all share (test): surface plasmon resonance
For one data set, the target named is tPA (Homo sapiens) (UniProt P00750).
Data set [1] has as its target plasminogen (Homo sapiens) (UniProt P00747).
The target in the next data set is plasmin (Homo sapiens) (UniProt P00747).

Sequence of UniProt P00750 (P00750 36-562): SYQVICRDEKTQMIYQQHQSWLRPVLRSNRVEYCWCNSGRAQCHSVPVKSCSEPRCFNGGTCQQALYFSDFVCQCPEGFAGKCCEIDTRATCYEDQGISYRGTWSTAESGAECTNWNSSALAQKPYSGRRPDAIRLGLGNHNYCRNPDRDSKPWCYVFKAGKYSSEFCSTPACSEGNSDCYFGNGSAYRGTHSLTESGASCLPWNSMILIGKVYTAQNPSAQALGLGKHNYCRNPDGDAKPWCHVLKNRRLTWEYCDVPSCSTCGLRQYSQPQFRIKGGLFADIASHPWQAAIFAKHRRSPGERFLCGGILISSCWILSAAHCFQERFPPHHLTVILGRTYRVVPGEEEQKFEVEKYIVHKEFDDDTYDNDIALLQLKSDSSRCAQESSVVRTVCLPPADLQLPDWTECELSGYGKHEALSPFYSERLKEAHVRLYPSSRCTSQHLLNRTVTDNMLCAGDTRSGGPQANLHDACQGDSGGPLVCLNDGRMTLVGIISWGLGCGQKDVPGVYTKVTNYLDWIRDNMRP

Broadly, the Kd is the constant that tells how readily two partners part at equilibrium. With S100A10 (from UniProt P60903), the Kd is 450 nM with tPA (Homo sapiens), 1810 nM in data set [1] and 360 nM with plasmin (Homo sapiens).
